Assay results reported in patent US20110287936A1, “GENE SWITCH COMPOSITIONS AND METHODS OF USE” (priority 2010, published 2011).

Columns and labels:
[1] = test system: 35S::tetO-Renilla Luciferase reporter; assay: Nicotiana benthamiana leaf infiltration assay, repression and derepression; type: in vivo; settings: inducer concentration as low as 0.02 ppm Es
operator = assay: Biacore SPR operator binding characterization of repressors
Source text: Select SU repressors were further characterized for operator and ligand binding, affinity and dissociation kinetics using Biacore™ SPR technology (Biacore, GE Healthcare, USA). The technology is based on surface plasmon resonance (SPR), an optical phenomenon that enables detection of unlabeled interactants in real time. The SPR-based biosensors can be used in determination of active concentration, screening and characterization in terms of both affinity and kinetics.
The kinetics of an interaction, i.e., the rates of complex formation (ka) and dissociation (kd), can be determined from the information in a sensorgram. If binding occurs as sample passes over a prepared sensor surface, the response in the sensorgram increases. If equilibrium is reached, a constant signal is seen. Replacing the sample with buffer causes the bound molecules to dissociate and the response decreases. Biacore evaluation software generates the values of ka and kd by fitting the data to interaction models.
The affinity of an interaction is determined from the level of binding at equilibrium (seen as a constant signal) as a function of sample concentration. Affinity can also be determined from kinetic measurements. For a simple 1:1 interaction, the equilibrium constant KD is the ratio of the kinetic rate constants, kd/ka.
A. Operator Binding Characterization of Repressors

RLuc reporter = assay: Agrobacterium transient luciferase assay of promoters with and without tet operators; type: in vivo, Nicotiana benthamiana; settings: relative light units
Description: The activity of unmodified and designed MMV, dMMV, and EF1A2 promoters were evaluated using the characterized 35SCaMV (SEQ ID NO:861) and 35SCaMV::tetOP (SEQ ID NO:862) promoters as controls. Promoter activity was analyzed via Agrobacterium-mediated transient expression analysis in Nicotiana benthamiana leaves. N. benthamiana leaves were infected with luciferase reporter constructs controlled by either the modified or unmodified promoters. Test constructs were identical except for the promoter sequence (Pro) being tested. Test constructs comprised the following operably linked components: • RB-Pro-RLuc-UBQ3-EF1A-NptII-EF1A3′-LB
Relative light units were quantified for modified and unmodified promoters (FIG. 3), and promoter activity for the modified version determined as the percent of unmodified promoter activity (ProOp/Pro). […] In this assay, 35S:tetOp had about 25% of the activity as 35S promoter, EF1A2:tetOp had about 30% of the activity of EF1A2 promoter, MMV:tetOp had about 60% of the activity of MMV promoter, and dMMV:tetOp had about 50% of the activity of dMMV promoter.

Row | Molecule | induction of repressor [1] | ka (operator) [M⁻¹ s⁻¹] | promoter activity as percent of unmodified promoter activity (ProOp/Pro) (RLuc reporter)
1 | L7-3E03-D1: ethametsulfuron repressor (EsR), SEQ ID NO:411 (protein, Sulfonylurea responsive repressor L7-3E3-D1) MARLDKSKVINSALELLNEVGIEGLTTRKLAQKLGVEQPTLYWHVKNKRALLDAMAIEMLDRHATHYCPLEGESWQDFLRNNAKSMRCALLSHRDGAKVCLGTGFTEQQYETAENSLAFLCQQGFSLEHAMYAMQAAGIYTLGCVLLDQELQVAKEERETPTTDSMPPLVRQALELKDHQGAEPAFLFGLELIICGLEKQLKCESGS | significant but incomplete induction | 55000 | –
2 | 35S:tetOp: 35SCaMV promoter with tet operators, SEQ ID NO:862, control (nucleic acid, 35SCaMV promoter engineered with tet operators) DNA: GAAAATCTTCGTCAACATGGTGGAGCACGACACGCTTGTCTACTCCAAAAATATCAAAGATACAGTCTCAGAAGACCAAAGGGCAATTGAGACTTTTCAACAAAGGGTAATATCCGGAAACCTCCTCGGATTCCATTGCCCAGCTATCTGTCACTTTATTGTGAAGATAGTGGAAAAGGAAGGTGGCTCCTACAAATGCCATCATTGCGATAAAGGAAAGGCCATCGTTGAAGATGCCTCTGCCGACAGTGGTCCCAAAGATGGACCCCCACCCACGAGGAGCATCGTGGAAAAAGAAGACGTTCCAACCACGTCTTCAAAGCAAGTGGATTGATGTGATATCTCCACTGACGTAAGGGATGACGCACAATCCCACTAGACTCTATCAGTGATAGAGTGTATATAAGACTCTATCAGTGATAGAGTGAACTCTATCAGTGATAGAGTTGTACTTATTTTTACAACAATTACCAACAACAACAAACAACAAACAACATTACAATTACTATTTACAATTACAGTCGACGGATCAAGTGCAAAGGTCCGCCTTGTTTCTCCTCTGTCTCTTGATCTGACTAATCTTGGTTTATGATTCGTTGAGTAATTTTGGGGAAAGCTTCGTCCACAGTTTTTTTTTCGATGAACAGTGCCGCAGTGGCGCTGATCTTGTATGCTATCCTGCAATCGTGGTGAACTTATTTCTTTTATATCCTTCACTCCCATGAAAAGGCTAGTAATCTTTCTCGATGTAACATCGTCCAGCACTGCTATTACCGTGTGGTCCATCCGACAGTCTGGCTGAACACATCATACGATATTGAGCAAAGATCGATCTATCTTCCCTGTTCTTTAATGAAAGACGTCATTTTCATCAGTATGATCTAAGAATGTTGCAACTTGCAAGGAGGCGTTTCTTTCTTTGAATTTAACTAACTCGTTGAGTGGCCCTGTTTCTCGGACGTAAGGCCTTTGCTGCTCCACACATGTCCATTCGAATTTTACCGTGTTTAGCAAGGGCGAAAAGTTTGCATCTTGATGATTTAGCTTGACTATGCGATTGCTTTCCTGGACCCGTGCAGCTGCGGACGGATCC | – | – | about 25%
3 | MMV:tetOp: Mirabilis mosaic virus promoter with three tet operators, SEQ ID NO:857 (nucleic acid, MMV promoter engineered with tet operators) DNA: TTCGTCCACAGACATCAACATCTTATCGTCCTTTGAAGATAAGATAATAATGTTGAAGATAAGAGTGGGAGCCACCACTAAAACATTGCTTTGTCAAAAGCTAAAAAAGATGATGCCCGACAGCCACTTGTGTGAAGCATGAGAAGCCGGTCCCTCCACTAAGAAAATTAGTGAAGCATCTTCCAGTGGTCCCTCCACTCACAGCTCAATCAGTGAGCAACAGGACGAAGGAAATGACGTAAGCCATGACGTCTAATCCCACACTCTATCAGTGATAGAGTTTATATAAGACTCTATCAGTGATAGAGTGAACTCTATCAGTGATAGAGTGAGATCAATCGAAATCAAAATCGGAATCGAAATCAAAATCGGAATCGAAATCTCTCATCTAAGAGCTCAAAAAAAAAAAAAACC | – | – | about 60%
4 | dMMV:tetOp: double enhancer MMV promoter with three tet operators, SEQ ID NO:858 (nucleic acid, dMMV promoter engineered with tet operators) DNA: AAACCAATTCGTCAACTTCGTCCACAGACATCAACATCTTATCGTCCTTTGAAGATAAGATAATAATGTTGAAGATAAGAGTGGGAGCCCCCACTAAAACATTGCTTTGTCAAAAGCTAAAAAAGATGATGCCCGACAGCCACTTGTGTGAAGCATGAGAAGCCGGTCCCTCCACTAAGAAAATTAGTGAAGCATCTTCCAGTGGTCCCTCCACTCACAGCTCAATCAGTGAGCAACAGGACGAAGGAAATGACGTAAGCCATGACGTCTAATCCCAACTTCGTCCACAGACATCAACATCTTATCGTCCTTTGAAGATAAGATAATAATGTTGAAGATAAGAGTGGGAGCCACCACTAAAACATTGCTTTGTCAAAAGCTAAAAAAGATGATGCCCGACAGCCACTTGTGTGAAGCATGAGAAGCCGGTCCCTCCACTAAGAAAATTAGTGAAGCATCTTCCAGTGGTCCCTCCACTCACAGCTCAATCAGTGAGCAACAGGACGAAGGAAATGACGTAAGCCATGACGTCTAATCCCACACTCTATCAGTGATAGAGTTTATATAAGACTCTATCAGTGATAGAGTGAACTCTATCAGTGATAGAGTGAGATCAATCGAAATCAAAATCGGAATCGAAATCAAAATCGGAATCGAAATCTCTCATCTAAGAGCTCAAAAAAAAAAAAAACC | – | – | about 50%
5 | L7-1C03-A5: ethametsulfuron repressor (EsR), SEQ ID NO:408 (protein, Sulfonylurea responsive repressor L7-1C3-A5) MARLDKSKVINSALELLNEVGIEGLTTRKLAQKLGVEQPTLYWHVKNKRALLDAMAIEMLDRHATHVCPLEGESWQDFLRNNAKIMRCALLSHRDGAKVCLGTGFTEQQYETAENSLAFLCQQGFSLEHALYAMQAAGIFTLGCVLLDQELQVAKEERETPTTDSMPPLVRQALELNDHQGAEPAFLFGLELIICGLEKQLKCESGS | – | 47000 | –
6 | L7-1F08-A11: ethametsulfuron repressor protein, SEQ ID NO:409 (protein, Sulfonylurea responsive repressor L7-1F8-A11) MARLDKSKVINSALELLNEVGIEGLTTRKLAQKLGVEQPTLYWHVKNKRALLDAMAIEMLDRHATHYCPLEGESWQDFLRNNAKSMRCALLSHRDGAKVCLGTGFTEQQYETAENSLAFLCQQGFSLENALYAMQAVGIYTLGCVLLDQELQVAKEERETPTTDSMPPLVRQALELKDHQGAEPAFLFGLELIICGLEKQLKCESGS | – | 71000 | –
7 | L7-1G06-B2: ethametsulfuron repressor (EsR), SEQ ID NO:410 (protein, Sulfonylurea responsive repressor L7-1G6-B2) MARLDKSKVINSALELLNEVGIEGLTTRKLAQKLGVEQPTLYWHVKNKRALLDAMAIEMLDRHATHYCPLEGESWQDFLRNNAKSMRCALLSHRDGAKVCLGTGFTEQQYETAENSMAFLCQQGFSLENALYAMQAVGIYTLGCVLLDQELQVAKEERETPTTDSMPPLVRQALELKDHQGAEPAFLFGLELIICGLEKQLKCESGS | – | 46000 | –
